Measurements published in patent publication US20160137728A1.

Target: T1, Thermus thermophilus wild type SlyD polypeptide (Thermus thermophilus)
T1 sequence: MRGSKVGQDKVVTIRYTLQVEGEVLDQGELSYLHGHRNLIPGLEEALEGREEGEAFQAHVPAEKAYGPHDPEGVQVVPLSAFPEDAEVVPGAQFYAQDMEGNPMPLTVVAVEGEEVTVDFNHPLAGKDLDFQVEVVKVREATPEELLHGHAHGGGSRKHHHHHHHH
Experiment: ELISA, clone culture supernatant

- reactivity [mE]: 32 mE
B1: MAb<h-IGF-1>M-11.09.15 (antibody, V domains shown)
VH: QVQLQQSGAELVRPGSSVKISCKASGYAFSNLWMNWVKQRPGQGLEWIGQIYPGDGDTNYYGDFKGKATLTADSSSSTAYMQLSRLTSEDSAVYFCARIGYYGMDYWGQGTSVTVSS
VL: DVVLTQTPLSLPVNIGDEASISCKSTKSLLSSDGLTYLDWYLQKPGQSPQVLIYLVSNRFSGVPDRFSGSGSGTDFTLKISRVEAEDLGVYYCFQSNYLPTFGAGTKLELK
